{
  "source": "paper PMC2809091",
  "key": {"[1]": {"biological_target": "F137L/E363G variant of S. pyogenes enolase (S. pyogenes) (UniProt P69949)", "assay": "AUC; sedimentation velocity; 19.4 µM enolase after incubation in 0.2 M NaClO4; octamer to monomers"}, "[2]": {"biological_target": "F137L/E363G variant of S. pyogenes enolase (S. pyogenes) (UniProt P69949)", "assay": "AUC; sedimentation velocity; 22.7 µM enolase in TME with varying NaClO4; octamer to monomers"}, "[3]": {"biological_target": "F137L/E363G variant of S. pyogenes enolase (S. pyogenes) (UniProt P69949)", "assay": "AUC; sedimentation velocity; 19.4 µM enolase incubated in 0.2 M NaClO4, then dialysed 24 hours against buffer (reassociation)"}, "[4]": {"biological_target": "F137L/E363G variant of S. pyogenes enolase (S. pyogenes) (UniProt P69949)", "assay": "AUC; sedimentation velocity, 20°C; pH 9.0, 50 mM Tris or glycine with 1 mM Mg(OAc)2 and 0.1 mM EDTA; octamer to monomers"}, "[5]": {"biological_target": "F137L/E363G variant of S. pyogenes enolase (S. pyogenes) (UniProt P69949)", "assay": "AUC; sedimentation velocity, 20°C; pH 7.4, 50 mM Tris with 1 mM Mg(OAc)2 and 0.1 mM EDTA"}, "[6]": {"biological_target": "F137L/E363G variant of S. pyogenes enolase (S. pyogenes) (UniProt P69949)", "assay": "AUC; sedimentation velocity, 15°C; 2.7 µM enolase incubated 18 h at 15°C in TME with NaClO4 (up to 0.4 M); octamer to monomers"}},
  "data": [
    {"substance": "F137L/E363G variant of S. pyogenes enolase (from UniProt P69949 1-435) (enzyme)", "values": [
      {"measurement": "percent octameric in 0.2 M NaClO4", "setting": "[1]", "value": 21, "unit": "%"},
      {"measurement": "NaClO4 concentration at 50% dissociation", "setting": "[2]", "value": 0.12, "unit": "M"},
      {"measurement": "percent octameric after dialysis against buffer", "setting": "[3]", "value": 77, "unit": "%"},
      {"measurement": "percent monomeric", "setting": "[4]", "value": 54, "unit": "%"},
      {"measurement": "percent octameric", "setting": "[4]", "value": 39, "unit": "%"},
      {"measurement": "percent octameric", "setting": "[5]", "value": 88, "unit": "%"},
      {"measurement": "stoichiometry N", "setting": "[5]", "value": 8},
      {"measurement": "NaClO4 concentration at 50% dissociation", "setting": "[6]", "value": 0.06, "unit": "M"}
    ]}
  ]
}
